Legend:
MDA-MB-231 cells = assay: In vitro killing assay: human neutrophils co-cultured with luciferase labelled MDA-MB-231 cells; assay type: cell-based; conditions: naïve human neutrophils:tumor cells 1:1, chemokine 100 ng/ml (rhG-CSF 20 ng/ml), overnight
Text: Luciferase is under a constitutive promoter so cell death results in a decrease in luciferase activity because there is no transcription/translation of the lucierferase gene. The assay itself requires lysing of the cell to release the luciferase to mix with the luciferin and measure the luminescence. But it isn't that they dying cell releases luciferase. More signal means more luciferase which means more live cells. […]. […] Nave human neutrophils were co-cultured with MDA-MB-231 cells. […] Cells were seeded at a ratio of human neutrophils:human tumor cells=1:1.
Antibodies used for immunohistochemistry—MMP9, F4/80 and CCR2 (all from AbCam), Myeloperoxidase (Dako), Ly-6G and Cd11b (both from BD), and Cleaved Caspase 3 (Cell signalling). Antibodies used for western blotting—Actin (Sigma), CCL2 (AbCam) and CCL5 (R&D) p-SMAD2 (cell signalling). Antibodies used for FACS analysis FITC-Ly-6G, FITC-Cd11b, FITC-F4/80, FITC-Cd34 and FITC-c-Kit (all from BD) and VEGFR1-AP (R&D). Neutrophil Depletion Neutrophil depletion was achieved using daily IP injections of 12.5 μg Rat anti-Gr-1 antibody (BD) or Rat anti-Ly-6G antibody (BD) starting on day 3 post tumour engraftment. Starting on day 14, neutrophil depleting antibodies were administered twice daily. Control mice were injected with […] Rat isotype control (BD). Neutrophil depletion was monitored by manual blood differentials and FACS analysis. Flow Cytometry Peripheral blood was collected into EDTA-coated tubes, washed and resuspended in FACS buffer solution (PBS, 2% heat-inactivated FCS, 5 mM EDTA, and 0.02% sodium azide). The samples were blocked with […] and then incubated with fluorophore-conjugated antibodies. Erythrocytes were then lysed with FACS lysing solution (BD Biosciences) and the cell suspensions were analyzed on a FACSCalibur (BD Biosciences). Colony Formation Assay Female nude mice were orthotopically injected with 5×10^6 puromicin resistant 4T1 cells. On days 7 and 14 post tumour engraftment the mice were sacrificed and perfused with PBS. The lungs and livers were removed, washed with PBS and dissociated with Collagenase A (Roche). The single cell suspension was then plated onto puromicin containing media and selected for 14 day. Colonies were stained with Methylene-Blue and counted manually. Mouse Neutrophil Purification Whole blood was collected by cardiac puncture using heparinized (Sigma) syringe. The blood was diluted with 5 volumes of PBS containing 0.5% BSA and subjected to a discontinuous Histopaque (Sigma) gradient (1.077 and 1.119). Neutrophils were collected from the 1.077-1.119 interface, lymphocytes and monocytes collected from the plasma-1.077 interface. RBCs were eliminated by hypotonic lysis. The cells were washed twice with PBS-BSA and re-suspended in OptiMEM (Invitrogen) 0.5% FBS in a final concentration of 2×10^6 cells/ml. Neutrophil purity and viability were determined visually and were consistently >98%. Human Neutrophil Purification As part of a Memorial Sloan-Kettering Cancer Center institutionally approved protocol, blood samples (˜10 cc) were collected from healthy volunteers or from patients who were already having blood drawn for pre-surgical testing. Patients were consented accordingly as part of the approved protocol. […] Patients had either mastectomies or lumpectomies planned and had blood drawn prior to definitive surgical removal of their primary tumor or chemotherapy. Blood samples were transferred to the lab for analysis no more than 1 hour post-blood draw. Heparinzed blood (20 U/ml final) was mixed with an equal volume of Dextran 500 (3% in saline) and incubated 30 minutes at room temperature. The leukocyte-rich supernatant was layered on top of histopaque 1077 (Sigma) and centrifuged. Neutrophils, collected in the pellet fraction, were resuspended in 10 ml 0.2% NaCl for 30 seconds to remove contaminating erythrocytes. Isotonicity was restored by the addition of 10 ml 1.6% NaCl. […]

4T1 cells = assay: In vivo stimulation of neutrophils with chemokines, purified neutrophils co-cultured with 4T1 cells; assay type: cell-based, mouse; conditions: healthy mice treated in vivo with G-CSF alone or G-CSF plus chemokine
Procedure: A. To test which chemokines may participate in the stimulation of neutrophils, neutrophils purified from healthy mice were co-culture with luciferase labeled 4T1 cells in the presence (20 ng/ml of chemokine) or absence of certain chemokines for an overnight incubation. […] B. To test which chemokines are sufficient for in vivo stimulation of neutrophils healthy mice were treated with G-CSF (to boost neutrophil numbers) and either CCL2, CCL5 or CXCL1. Control mice were treated with G-CSF alone. Neutrophils were purified from these mice and co-cultured with Luciferase-labeled 4T1 cells. […] Conclusion—CCL2 and to a lesser degree CCL5 can stimulate tumor cell killing both in vitro and in vivo.

B1: rhG-CSF: recombinant methionyl human granulocyte colony-stimulating factor (Neupogen, Amgen) (protein, chains of the INN, looked up)
chain: MTPLGPASSLPQSFLLKCLEQVRKIQGDGAALQEKLCATYKLCHPEELVLLGHSLGIPWAPLSSCPSQALQLAGCLSQLHSGLFLYQGLLQALEGISPELGPTLDTLQLDVADFATTIWQQMEELGMAPALQPTQGAMPAFASAFQRRAGGVLVASHLQSFLEVSYRVLRHLAQP
modifications: N-terminal methionine
MDA-MB-231 cells
  neutrophil cytotoxicity / neutrophil mediated killing of MDA-MB-231 cells: does not induce neutrophil mediated cell killing
4T1 cells
  viability of 4T1 cells co-cultured with neutrophils purified from chemokine treated mice: did not induce a reduction in cell viability
